This passage reports apparent affinity (Kapp) from the fit of ATPase stimulation of Hsp82p:Hsp82p^V391E/LL heterodimers (1 μM + 5 μM) against Aha1p concentration (Fig. 3E) and inhibition of the ATPase activity of Hsp82p:Hsp82p^LL heterodimers (1 μM + 5 μM) by titrated Hch1p (~16% results from article PMC5018835.

For experiment [1], the target named is Hsp82p:Hsp82p^V391E/LL heterodimer (S. cerevisiae), P02829.
Experiment [2] has as its target Hsp82p:Hsp82p^LL heterodimer (S. cerevisiae), P02829.

B1: Aha1p (full length, N-terminal 6xHis tag), Q12449 1-350 (natural protein)
chain: MVVNNPNNWHWVDKNCIGWAKEYFKQKLVGVEAGSVKDKKYAKIKSVSSIEGDCEVNQRKGKVISLFDLKITVLIEGHVDSKDGSALPFEGSINVPEVAFDSEASSYQFDISIFKETSELSEAKPLIRSELLPKLRQIFQQFGKDLLATHGNDIQVPESQVKSNYTRGNQKSSFTEIKDSASKPKKNALPSSTSTSAPVSSTNKVPQNGSGNSTSIYLEPTFNVPSSELYETFLDKQRILAWTRSAQFFNSGPKLETKEKFELFGGNVISELVSCEKDKKLVFHWKLKDWSAPFNSTIEMTFHESQEFHETKLQVKWTGIPVGEEDRVRANFEEYYVRSIKLTFGFGAVL
On to B1, for which the apparent affinity (Kapp) from the fit of ATPase stimulation of Hsp82p:Hsp82p^V391E/LL heterodimers (1 μM + 5 μM) against Aha1p concentration (Fig. 3E) in experiment [1] was determined as 0.8 µM.

B2: Hch1p (N-terminal 6xHis tag), P53834 1-153 (natural protein)
chain: MVVLNPNNWHWVDKNTLPWSKDYLNGKLTSLSTVSSDGKSKIELTQVSSITGDSNVSQRKGKPICYFDLQLSMNVKVTNLDTNKDDEDDDGILADGKLEIPEFMHDESDIPILSQGFDAFDGLVRSEFVPKVVETLLKYQDDLIKEHSKDIQV
With B2, in experiment [2], the inhibition of the ATPase activity of Hsp82p:Hsp82p^LL heterodimers (1 μM + 5 μM) by titrated Hch1p (~16% at 2.5 μM, ~11% at 5 μM, overcome at higher concentrations; Fig. 2C) came out at 16%.
